Results reported in article PMC10256215, “IFITM1 enhances nonenveloped viral RNA replication by facilitating cholesterol transport to the Golgi” (PLOS Pathogens, 2023).

Assays:
Experiment in all cases: two-hybrid; mammalian two-hybrid (Checkmate, Promega) in Vero cells; pACT and pBIND fusions in both orientations with the pG5luc reporter; firefly/Renilla luciferase at 48 h as fold of the control with empty pACT or pBIND
Conditions in all cases: partners not purified
[1] = biological target: T1, ACBD3 (mammalian two-hybrid fusion) (UniProt Q9H3P7 1-528)
T1 construct: ACBD3, Golgi protein; two-hybrid construct not described; Two-hybrid construct not described in the methods; source: Vero cells, transfected, mammalian two-hybrid fusion
T1 sequence (looked up): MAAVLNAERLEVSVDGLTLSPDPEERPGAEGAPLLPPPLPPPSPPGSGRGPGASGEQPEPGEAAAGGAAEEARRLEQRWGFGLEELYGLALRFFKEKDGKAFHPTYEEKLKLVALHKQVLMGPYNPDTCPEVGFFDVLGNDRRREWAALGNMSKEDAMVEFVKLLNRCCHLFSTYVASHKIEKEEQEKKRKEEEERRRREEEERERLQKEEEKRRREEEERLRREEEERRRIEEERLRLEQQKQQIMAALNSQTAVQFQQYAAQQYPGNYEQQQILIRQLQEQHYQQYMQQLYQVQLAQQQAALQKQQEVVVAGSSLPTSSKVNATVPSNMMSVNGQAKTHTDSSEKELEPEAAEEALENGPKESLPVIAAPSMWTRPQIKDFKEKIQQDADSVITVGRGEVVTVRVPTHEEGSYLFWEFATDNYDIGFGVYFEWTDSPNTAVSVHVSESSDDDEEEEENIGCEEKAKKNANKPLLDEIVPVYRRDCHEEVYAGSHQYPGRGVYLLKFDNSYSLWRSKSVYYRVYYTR

[2] = biological target: T2, PI4KB (mammalian two-hybrid fusion) (UniProt Q9UBF8 1-816)
T2 construct: PI4KB, Golgi protein; two-hybrid construct not described; Two-hybrid construct not described in the methods; also called phosphatidylinositol 4-kinase IIIβ; source: Vero cells, transfected, mammalian two-hybrid fusion

[3] = biological target: T3, OSBP (mammalian two-hybrid fusion) (UniProt P22059 1-807)
T3 construct: two-hybrid construct not described; Two-hybrid construct not described in the methods; source: Vero cells, transfected, mammalian two-hybrid fusion
T3 sequence (looked up): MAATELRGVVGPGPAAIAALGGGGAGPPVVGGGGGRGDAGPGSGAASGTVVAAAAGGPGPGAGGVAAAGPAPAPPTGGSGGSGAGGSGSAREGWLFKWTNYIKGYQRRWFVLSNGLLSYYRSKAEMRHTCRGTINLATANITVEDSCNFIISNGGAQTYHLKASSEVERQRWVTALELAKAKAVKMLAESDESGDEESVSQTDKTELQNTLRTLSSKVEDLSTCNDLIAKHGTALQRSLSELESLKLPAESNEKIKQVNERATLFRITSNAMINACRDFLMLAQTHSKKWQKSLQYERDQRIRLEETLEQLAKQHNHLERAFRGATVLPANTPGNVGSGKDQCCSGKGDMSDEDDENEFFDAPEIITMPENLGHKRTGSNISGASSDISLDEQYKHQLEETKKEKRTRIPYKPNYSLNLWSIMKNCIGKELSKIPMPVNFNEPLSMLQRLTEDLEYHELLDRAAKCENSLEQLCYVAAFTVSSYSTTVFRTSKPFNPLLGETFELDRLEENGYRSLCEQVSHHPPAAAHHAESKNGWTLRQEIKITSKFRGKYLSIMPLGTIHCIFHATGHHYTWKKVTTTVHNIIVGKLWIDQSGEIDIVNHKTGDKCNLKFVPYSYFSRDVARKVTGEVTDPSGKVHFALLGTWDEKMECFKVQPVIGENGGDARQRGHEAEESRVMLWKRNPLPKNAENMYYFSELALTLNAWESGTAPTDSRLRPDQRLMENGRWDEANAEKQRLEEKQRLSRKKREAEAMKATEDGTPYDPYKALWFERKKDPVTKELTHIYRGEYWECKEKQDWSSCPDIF

T2 sequence (Q9UBF8 whole entry, the tested form may be a part): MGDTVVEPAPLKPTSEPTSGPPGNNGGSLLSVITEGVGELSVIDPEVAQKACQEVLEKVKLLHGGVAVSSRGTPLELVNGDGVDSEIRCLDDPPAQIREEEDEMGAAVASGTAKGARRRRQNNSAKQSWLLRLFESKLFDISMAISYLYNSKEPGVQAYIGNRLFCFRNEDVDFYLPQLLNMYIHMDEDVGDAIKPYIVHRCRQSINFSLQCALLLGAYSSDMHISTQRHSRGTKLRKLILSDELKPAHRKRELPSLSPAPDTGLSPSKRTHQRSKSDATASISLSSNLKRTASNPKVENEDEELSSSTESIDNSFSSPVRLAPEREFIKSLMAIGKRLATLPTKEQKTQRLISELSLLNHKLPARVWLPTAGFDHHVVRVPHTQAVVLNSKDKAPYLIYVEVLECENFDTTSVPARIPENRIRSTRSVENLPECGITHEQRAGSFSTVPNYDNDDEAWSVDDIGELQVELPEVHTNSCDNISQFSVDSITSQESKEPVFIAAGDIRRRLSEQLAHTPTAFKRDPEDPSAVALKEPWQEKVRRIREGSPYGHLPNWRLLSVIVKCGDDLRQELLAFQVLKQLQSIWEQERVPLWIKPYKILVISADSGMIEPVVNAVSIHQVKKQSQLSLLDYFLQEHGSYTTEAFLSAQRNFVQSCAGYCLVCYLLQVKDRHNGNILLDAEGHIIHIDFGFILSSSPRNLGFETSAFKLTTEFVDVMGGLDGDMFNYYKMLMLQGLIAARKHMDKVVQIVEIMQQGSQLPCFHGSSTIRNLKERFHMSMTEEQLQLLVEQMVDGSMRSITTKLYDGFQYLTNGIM

B1: IFITM1 (mammalian two-hybrid fusion) (natural protein, human, UniProt P13164 1-125, looked up)
chain: MHKEEHEVAVLGPPPSTILPRSTVINIHSETSVPDHVVWSLFNTLFLNWCCLGFIAFAYSVKSRDRKMVGDVTGAQAYASTAKCLNIWALILGILMTIGFILLLVFGSVTVYHIMLQIIQEKRGY
notes: IFITM1, human; coding region amplified by PCR from an OriGene cDNA clone; one fusion partner at a time; also called interferon-induced transmembrane protein 1; pACT-IFITM1; source: Vero cells, transfected, mammalian two-hybrid fusion
[1]
  fold increase in luciferase activity: 84.2 fold
[2]
  fold increase in luciferase activity: 8.2 fold
[3]
  fold increase in luciferase activity: 7.8 fold
